Source: US20250179210A1, “ANTI-CEACAM5 ANTIBODIES AND CONJUGATES AND USES THEREOF” (Merck Patent GmbH, priority 2022, published 2025)

Biological target: Recombinant Macaca fascicularis CEACAM5_ECD-His-biotin (Syngene) (Macaca fascicularis)
Test: BLI (Octet Red), biotinylated antigen captured on streptavidin biosensor, Fab as analyte 6.25-200 nM

Chain of Recombinant Macaca fascicularis CEACAM5_ECD-His-biotin (Syngene) (Macaca fascicularis) (chain, as listed by the source limits assumed, form in doubt): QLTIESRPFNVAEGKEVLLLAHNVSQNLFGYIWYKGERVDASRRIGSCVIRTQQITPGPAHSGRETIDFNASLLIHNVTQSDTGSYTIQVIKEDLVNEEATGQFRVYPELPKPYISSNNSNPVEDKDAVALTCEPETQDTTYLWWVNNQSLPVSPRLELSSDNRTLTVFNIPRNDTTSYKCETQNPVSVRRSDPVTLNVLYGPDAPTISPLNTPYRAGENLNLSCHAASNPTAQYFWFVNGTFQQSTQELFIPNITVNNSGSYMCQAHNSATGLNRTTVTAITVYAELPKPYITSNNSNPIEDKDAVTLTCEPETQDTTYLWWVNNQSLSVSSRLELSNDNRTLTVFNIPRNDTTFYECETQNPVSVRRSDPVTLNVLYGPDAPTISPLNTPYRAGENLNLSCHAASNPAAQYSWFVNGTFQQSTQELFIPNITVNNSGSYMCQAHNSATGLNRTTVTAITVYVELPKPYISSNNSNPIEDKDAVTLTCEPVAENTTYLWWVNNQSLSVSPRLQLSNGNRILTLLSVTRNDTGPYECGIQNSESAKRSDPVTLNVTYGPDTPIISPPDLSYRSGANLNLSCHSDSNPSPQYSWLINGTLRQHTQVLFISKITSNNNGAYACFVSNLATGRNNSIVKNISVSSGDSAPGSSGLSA

B1: Fab of mAb1 (Fab, V domains shown)
VH: EVQLQESGPGLVKPSQTLSLTCTVSDGSVSRGGYYLTWIRQHPGKGLEWIGYIYYSGSTYFNPSLRSRVTMSVDTSKNQFSLKLSSVTAADTAVYYCARGIAVAPFDYWGQGTLVTVSS
VL: EIVLTQSPATLSVSPGERATLSCRTSQSVRSNLAWYQQKPGQAPRLLIYAASTRATGIPARFSGSGSGTEFTLTISSLQSEDFAVYYCQQYTNWPFTFGPGTKVDIK
Kd: 14.1 nM
